Measured values published in article PMC4822319, “Quaternary structure of a G-protein-coupled receptor heterotetramer in complex with Gi and Gs” (BMC Biology, 2016).

B1: adenosine A2A receptor fused to mCherry (A2AR-mCherry) (receptor, human, UniProt P29274 1-412, looked up)
chain: MPIMGSSVYITVELAIAVLAILGNVLVCWAVWLNSNLQNVTNYFVVSLAAADIAVGVLAIPFAITISTGFCAACHGCLFIACFVLVLTQSSIFSLLAIAIDRYIAIRIPLRYNGLVTGTRAKGIIAICWVLSFAIGLTPMLGWNNCGQPKEGKNHSQGCGEGQVACLFEDVVPMNYMVYFNFFACVLVPLLLMLGVYLRIFLAARRQLKQMESQPLPGERARSTLQKEVHAAKSLAIIVGLFALCWLPLHIINCFTFFCPDCSHAPLWLMYLAIVLSHTNSVVNPFIYAYRIREFRQTFRKIIRSHVLRQQEPFKAAGTSARVLAAHGSDGEQVSLRLNGHPPGVWANGSAPHPERRPNGYALGLVSGGSAQESQGNTGLPDVELLSHELKGVCPEPPGLDDPLAQDGAGVS
notes: adenosine A2A receptor, human, UniProt P29274; The construct for single-particle tracking is not described in the main text; details may stand in Additional file 11 (Supplementary methods); also called A2A-mCherry; A2A-Cherry; source: HEK-293T, transiently transfected, on living cells; not shown: mCherry, C-terminal, kept

Assays:
[1] = molecular target: adenosine A1 receptor fused to a hemi-Rluc8 (A1R-nRluc8) or to a hemi-Venus (A1R-nVenus) (human) (UniProt P30542)
adenosine A1 receptor fused to a hemi-Rluc8 (A1R-nRluc8) or to a hemi-Venus (A1R-nVenus) (human), sequence (P30542 whole entry, the tested form may be a part): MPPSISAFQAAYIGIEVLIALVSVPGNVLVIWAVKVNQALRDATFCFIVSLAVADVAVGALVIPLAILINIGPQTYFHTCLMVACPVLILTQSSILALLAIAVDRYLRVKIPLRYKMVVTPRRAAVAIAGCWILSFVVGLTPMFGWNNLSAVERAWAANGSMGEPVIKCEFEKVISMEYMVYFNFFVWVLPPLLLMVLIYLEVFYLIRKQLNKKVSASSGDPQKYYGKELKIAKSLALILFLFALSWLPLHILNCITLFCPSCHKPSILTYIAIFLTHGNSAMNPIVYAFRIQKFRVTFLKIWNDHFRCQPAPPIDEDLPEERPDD

[2] = molecular target: the molecule itself; experiment: single-particle tracking and brightness analysis (TIRFM); living HEK-293T cells expressing A1R-GFP alone or A2AR-mCherry alone; number of receptors in a particle from the brightness distribution of the individual particles

Molecule | decrease of BRETmax of the complementation BRET (A1R and A2AR fused to hemi-Rluc8 and hemi-Venus, the heterotetramer) after pertussis toxin (10 ng/ml, 16 h); endogenous Gi [1] [%] | stoichiometry N [2]
α-subunit of Gi fused to Rluc (Gi-Rluc) (from UniProt P63096 1-354) (natural protein) | 35 | –
B1 | – | 3
